For test [1], the target named is human CD2 on primary human T cells (human) (UniProt P06729). The test can be described thus: flow cytometry, calculated Kd of competitor antibody; human CD8 naïve T cells.
Test [2] has the same target. The test can be described thus: flow cytometry, calculated Kd of competitor antibody; human CD8 memory T cells.
The target is the same in test [3]. The test can be described thus: flow cytometry, calculated Kd of competitor antibody; expanded human CD4 Treg cells.
For test [4] the target is unchanged. Put plainly: flow cytometry, calculated Kd of competitor antibody; human CD4 naïve T cells.
The target is the same in test [5]. The test can be described thus: flow cytometry, calculated Kd of competitor antibody; human CD4 effector memory T cells.
Test [6] has the same target. Put plainly: flow cytometry, calculated Kd of competitor antibody; human CD4 central memory T cells.
The target is the same in test [7]. Put plainly: flow cytometry, calculated Kd of competitor antibody; human CD4 memory T cells.

Several values for one entry are separate records, joined by “and”; a condition that tells them apart may be missing. Equal values may be shown once.

In patent publication US20210032308A1 one finds Kd data, which are given here for one substance.

human CD2 on primary human T cells (human), sequence (P06729 25-351): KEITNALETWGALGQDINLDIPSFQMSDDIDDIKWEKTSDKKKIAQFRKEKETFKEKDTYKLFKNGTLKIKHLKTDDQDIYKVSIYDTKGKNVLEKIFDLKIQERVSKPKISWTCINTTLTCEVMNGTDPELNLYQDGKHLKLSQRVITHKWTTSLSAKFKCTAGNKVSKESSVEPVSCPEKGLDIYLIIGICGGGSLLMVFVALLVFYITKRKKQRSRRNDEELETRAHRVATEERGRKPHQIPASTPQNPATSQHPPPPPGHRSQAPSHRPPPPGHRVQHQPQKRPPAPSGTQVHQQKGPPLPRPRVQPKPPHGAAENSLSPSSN

One may read the Kd as the constant that tells how readily two partners part at equilibrium. Take “anti-CD2-FITC (clone RPA2.10) (antibody)”: the Kd in test [1] is 14.8 nM and 31 nM; in test [2], 11 nM; in test [3], 67.9 nM; in test [4] it was 18.2 nM and 23.8 nM; in test [5], 34 nM; in test [6], 44.7 nM. Further, the Kd in test [7] was 23.7 nM and 42 nM.
